Reference: article PMC5093063

Columns and labels:
Assay in all cases: SEC
[1] = target: Chimeric IN F-F-H (NTD and CCD of FIV, CTD of HIV-1) (FIV (Petaluma) | HIV-1) (UniProt P12497)
[2] = target: Chimeric IN F-H-F (NTD and CTD of FIV, CCD of HIV-1) (FIV (Petaluma) | HIV-1) (UniProt P12497)
[3] = target: Chimeric IN F-H-H (NTD of FIV, CCD and CTD of HIV-1) (FIV (Petaluma) | HIV-1) (UniProt P12497)
[4] = target: Chimeric IN H-F-F (NTD of HIV-1, CCD and CTD of FIV) (HIV-1 | FIV (Petaluma)) (UniProt P12497)

Substance: Chimeric IN F-F-H (NTD and CCD of FIV, CTD of HIV-1) (from UniProt P12497 211-289) (enzyme)
- stoichiometry N [1]: 2

Substance: Chimeric IN F-H-F (NTD and CTD of FIV, CCD of HIV-1) (from UniProt P12497 53-210) (enzyme)
- stoichiometry N [2]: 2

Substance: Chimeric IN F-H-H (NTD of FIV, CCD and CTD of HIV-1) (from UniProt P12497) (enzyme)
- stoichiometry N [3]: 2

Substance: Chimeric IN H-F-F (NTD of HIV-1, CCD and CTD of FIV) (from UniProt P12497 2-52) (enzyme)
- stoichiometry N [4]: 2
